In PMC3738515, “HLA-DO as the Optimizer of Epitope Selection for MHC Class II Antigen Presentation” (PLoS ONE, 2013):
Where two headings read alike, the source gives them in different places. Values belong to the molecule of their own block, whether it stands above or below them. No end group written: not given here.

Key:
[1] = biological target: T1, HLA-DR1 (DR1) (Homo sapiens, UniProt P01903+P01911, A100R/D57E/F55L/F60I/F76Y/I96L/L162R/M171V/P40L/Q125E/R42F/V115G/Y59C); test: Fluorescent peptide association to soluble DR1 (spin-column separation, fluorescence read-out); type: binding
[2] = biological target: T1, HLA-DR1 (DR1); test: Dissociation of fluorescent peptide/DR1 complexes; type: binding; settings: for DM sensitivity of DR1/peptide complex (dissociation in the presence of DM): 10 hours
[3] = tested on: Mags.DO5 monoclonal antibody; test: SPR binding to immobilized Mags.DO5 antibody surface
Method: Purified DM/DO complexes were further evaluated by binding to anti-HA and anti-His antibody immobilized chip surfaces using BIAcore Surface Plasmon Resonance (SPR) instrument (Fig. 1C and D). […] To ensure that the observed binding was due to binding of DM/DO to Mags.DO5 mAb, we preincubated DM/DO complexes with soluble Mags.DO5 prior to injecting it over Mags.DO5 immobilized surface.

[4] = tested on: HLA-DO (DO); test: SPR binding to DO captured on anti-His antibody surface; set-up: species or system human; settings: soluble DM 4 µM injected over DO captured by anti-His antibody; pH 5.5, 27°C
[5] = biological target: soluble HLA-DR1 (human)
[6] = biological target: recombinant soluble HLA-DO (human) (UniProt P06340); test: SPR; DO (Ni-NTA purified) captured on anti-His antibody CM5 chip; analyte 4 µM; citrate-phosphate pH 5.5, 150 mM NaCl, 0.005% Tween-20; 27°C, 5–10 µL/min
[7] = biological target: co-expressed DM/DO complex (human) (UniProt P06340); test: SPR
[8] = tested on: HLA-DM (DM); settings: DO solution 5 µM over DM captured by anti-FLAG antibody; pH 5.5, 27°C
[9] = biological target: soluble HLA-DR1 (human); test: fluorescent peptide association kinetics (Sephadex G-50 spin column, fluorescence); as a1 with 1 µM DM added
[10] = biological target: soluble HLA-DR1 (human); test: fluorescent peptide association kinetics (Sephadex G-50 spin column, fluorescence); as a1 with 4 µM DO added
[11] = biological target: soluble HLA-DR1 (human); test: fluorescent peptide association kinetics (Sephadex G-50 spin column, fluorescence); as a1 with 1 µM DM and 4 µM DO added
[12] = biological target: soluble HLA-DR1 (human); test: fluorescent peptide association kinetics (Sephadex G-50 spin column, fluorescence); DR1 or DR1βG86Y 1 µM with fluorescent peptide 30 µM, no accessory molecules; 37°C, citrate-phosphate buffer pH 5.0; up to 10 h; unbound peptide removed on G-50 spin columns

Molecule: CAGFKGEQGPKGEP [CII(259–273), derived from Type II Collagen peptide used to induce arthritis in mice models]
- Observed initial binding rate, DR1 alone ([1]; DR1 1 µM, fluorescent peptide 30 µM, 37°C, Citrate-Phosphate buffer pH 5.0, slope of linear fit of early data points (~1 hour), no accessory molecules): 500 Arbitrary Fluorescence Units min^−1
- Observed initial binding rate, + DM and DO ([1]; DR1 1 µM, peptide 30 µM, DM 1 µM and DO 4 µM, 37°C, pH 5.0, initial rate over 1 hour): 1002 Arbitrary Fluorescence Units min^−1
- Observed initial binding rate, + DM ([1]; DR1 1 µM, peptide 30 µM, DM 1 µM, 37°C, pH 5.0, initial rate over 1 hour): 1593 Arbitrary Fluorescence Units min^−1
- Observed initial binding rate, + DO ([1]; DR1 1 µM, peptide 30 µM, DO 4 µM, 37°C, pH 5.0, initial rate over 1 hour): 137 Arbitrary Fluorescence Units min^−1
- Effect of DO on peptide binding to peptide-receptive DR1 (DR-receptive) ([1]; DR1 pre-incubated with unlabeled HA(anchorless) for three days, no DM): reduced
- Effect of DO (or DM+DO) on dissociation of peptide from DR1 ([2]; DO 4 µM, with or without DM 1 µM, 10 hour kinetic experiment, pH 5.0, 37°C): no effect
- DM sensitivity of DR1/peptide complex (dissociation in the presence of DM) ([2]; complexes formed over 3 days at 37°C, DM 1 µM, competing HA(306–318) 50 µM, pH 5.0, 37°C): DM-sensitivity

Molecule: DM/DO: co-expressed soluble DM/DO complex purified by Ni-NTA or Mags.DO5
- SPR binding to Mags.DO5 mAb immobilized surface after preincubation with soluble Mags.DO5 ([3]; DM/DO preincubated with soluble Mags.DO5 prior to injection): about 100 RU
- SPR binding to Mags.DO5 mAb immobilized surface ([3]; Ni-NTA purified DM/DO complexes, pH 5.5 running buffer, 27°C): approximately 600 RU

Molecule: H5N1-HA1(259–274) peptide
- observed initial binding rate (+ DM and DO) (Arbitrary Fluorescence Units min^-1) [5]: 2200
- observed initial binding rate (+ DM) (Arbitrary Fluorescence Units min^-1) [5]: 665
- observed initial binding rate (+ DO) (Arbitrary Fluorescence Units min^-1) [5]: 257

Molecule: HA(306–318) peptide
- observed initial binding rate (+ DM and DO) (Arbitrary Fluorescence Units min^-1) [5]: 1780
- observed initial binding rate (+ DM) (Arbitrary Fluorescence Units min^-1) [5]: 463
- observed initial binding rate (+ DO) (Arbitrary Fluorescence Units min^-1) [5]: 523

Molecule: HA(306–318): derived from Texas 77 flu strain HA protein peptide; immunodominant HLA-DR1 binding peptide (CPKYVKQNTLKLAT)
- Effect of DO on peptide binding to peptide-receptive DR1 (DR-receptive) [1]: enhanced
- Enhancement of initial binding rate by DO compared to DR1 alone [1]: 3–4 folds
- Effect of DO on maximum binding of peptide to DR1 ([1]; pH 5): increasing the binding maxima
- Observed initial binding rate, + DM ([1]; pH 5): 463 Arbitrary Fluorescence Units min^−1
- Observed initial binding rate, + DM and DO ([1]; pH 5): 1779 Arbitrary Fluorescence Units min^−1
- Observed initial binding rate, + DO ([1]; pH 5): 523 Arbitrary Fluorescence Units min^−1
- Observed initial binding rate, DR1 alone ([1]; pH 5): 132 Arbitrary Fluorescence Units min^−1
- Effect of DO (or DM+DO) on dissociation of peptide from DR1 ([2]; pH 5): did not affect
- DM sensitivity of DR1/peptide complex (dissociation in the presence of DM) ([2]; pH 5.0, 37°C): DM-resistant

Molecule: mutant DR1, DR1βG86Y (from UniProt P01903 26-216) (receptor)
- response at 4 µM [6]: 100 RU

Further lines, results first:

- SPR binding of DM to captured DO [4]: 490 RU
Molecule: DM: soluble HLA-DM purified on M2 FLAG affinity column

- SPR binding response [7]: 337 RU
Molecule: soluble HLA-DR1 (from UniProt P01903 26-216) (receptor)

- SPR maximum binding of DO to immobilized DM [8]: 500 RU
B1: DO: recombinant soluble HLA-DO heterodimer with leucine zipper, His- and HA-tags, expressed in Hi5 insect cells (protein)
chain 1: TKADHMGSYGPAFYQSYGASGQFTHEFDEEQLFSVDLKKSEAVWRLPEFGDFARFDPQGGLAGIAAIKAHLDILVERSNRSRAINVPPRVTVLPKSRVELGQPNILICIVDNIFPPVINITWLRNGQTVTEGVAQTSFYSQPDHLFRKFHYLPFVPSAEDVYDCQVEHWGLDAPLLRHWELQVPIPPPDAME
chain 2: TDSPEDFVIQAKADCYFTNGTEKVQFVVRFIFNLEEYVRFDSDVGMFVALTKLGQPDAEQWNSRLDLLERSRQAVDGVCRHNYRLGAPFTVGRKVQPEVTVYPERTPLLHQHNLLHCSVTGFYPGDIKIKWFLNGQEERAGVMSTGPIRNGDWTFQTVVMLEMTPELGHVYTCLVDHSSLLSPVSVEWRAQSEYSWRK
modifications: left off: leucine zipper (acidic or basic chain, which not stated; flanked by spacers), C-terminal, state not stated | His tag, C-terminal, kept | leucine zipper (acidic or basic chain, which not stat

- observed initial binding rate (+ DM) (Arbitrary Fluorescence Units min^-1) [9]: 1590
- observed initial binding rate (+ DO) (Arbitrary Fluorescence Units min^-1) [10]: 137
- observed initial binding rate (+ DM and DO) (Arbitrary Fluorescence Units min^-1) [11]: 1000
- observed initial binding rate (Arbitrary Fluorescence Units min^-1) [12]: 500
Molecule: fluorescein-CAGFKGEQGPKGEP [CII(259–273) peptide]
